Results: the supplement of paper PMC7877785
± gives the uncertainty stated by the source.

Assay: self-splicing fitness, log relative to wild type (ln ratio); higher = more splicing; Tetrahymena group I intron in knt gene, E. coli kanamycin selection, DiMSum; sequences stand for … in CUCUCU…GGAGGGAAAAGUUAUCAGGCAUGCACCUGGUAGCUAGUCUUUAAACCAAUAGAUUGCAUCGGUUUAAAAGGCAAGACCGUCAAAUUGCGGGAAAGGGGUCAACAGCCGUUCAGUACCAAGUCUCAGGGGAAACUUUGAGAUGGCCUUGCAAAGGGUAUGGUAAUAAGCUGACGGACAUGGUCCUAACCACGCAGCCAAGUCCUAAGUCAACAGAUCUUCUGUUGAUAUGGAUGCAGUUCACAGACUAAAUGUCGGUCGGGGAAGAUGUAUUCUUCUCAUAAGAUAUAGUCGGACCUCUCCUUAAUGGGAGCUAGCGGAUGAAGUGAUGCAACACUGGAGCCGCUGGGAACUAAUUUGUAUGCGAAAGUAUAUUGAUUAGUUUUGGAGUACUCGUGGUCG
Procedure, shortened: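 A randomised library covering all eight P1ex-region intron nucleotides was built with the intron in the knt kanamycin-resistance gene on pET-22b(+) and held in E. coli BL21(DE3). Cells were grown overnight at 37°C or 30°C on LB agar, with or without 25 μg/mL kanamycin, plus 100 μg/mL carbenicillin, 50 μM IPTG and 0.2% rhamnose, and pooled colonies were amplicon-sequenced on an Illumina HiSeq 2500. DiMSum fitness is the error-weighted combination of wild-type-normalised replicate fold changes, kanamycin versus none.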

Sequence	self-splicing fitness (ln) (30 °C)	self-splicing fitness (ln) (37 °C)
GACUAGCAAUAUUACGUGUG	-1.12 ± 0.055	-0.793 ± 0.073
AAUGAGCAAUAUUACGUUUC	-4.31 ± 0.24	-2.98 ± 0.25
GAAUAGCAAUAUUACGGGUU	-2.48 ± 0.14	-1.86 ± 0.17
CGCGAGCAAUAUUACGCAUG	-2.48 ± 0.2	-2.14 ± 0.16
ACGGAGCAAUAUUACGUGAG	-3.06 ± 0.28	-1.15 ± 0.19
AGCCAGCAAUAUUACGUGAA	-3.14 ± 0.091	-1.81 ± 0.1
GGUAAGCAAUAUUACGGCGA	-0.523 ± 0.11	-0.26 ± 0.13
GUAAAGCAAUAUUACGUAGA	-2.33 ± 0.1	-1.32 ± 0.12
AUAAAGCAAUAUUACGAUUA	-0.144 ± 0.073	0.683 ± 0.095
AUACAGCAAUAUUACGGCAA	-0.488 ± 0.076	0.0743 ± 0.078
CACCAGCAAUAUUACGUCAU	-4.12 ± 0.17	-2.27 ± 0.14
ACCGAGCAAUAUUACGCGCA	-2.06 ± 0.1	-0.82 ± 0.078
ACACAGCAAUAUUACGAUUC	-1.96 ± 0.049	-1.32 ± 0.072
GUAUAGCAAUAUUACGACUG	-2.88 ± 0.33	-2.23 ± 0.33
GUCCAGCAAUAUUACGGCAC	-1.17 ± 0.064	-0.348 ± 0.092
GGUCAGCAAUAUUACGAACG	0.0341 ± 0.039	0.332 ± 0.057
CACCAGCAAUAUUACGUACG	0.0448 ± 0.04	0.848 ± 0.062
AACCAGCAAUAUUACGGGUC	-3.62 ± 0.13	-2.68 ± 0.15
GGUUAGCAAUAUUACGCUAA	-1.98 ± 0.41	–
UGCUAGCAAUAUUACGCGAU	-4.01 ± 0.39	-1.03 ± 0.15
CGUAAGCAAUAUUACGCCCA	-1.83 ± 0.19	-0.135 ± 0.24
AACUAGCAAUAUUACGUCUA	-0.702 ± 0.097	-0.347 ± 0.1
UGUCAGCAAUAUUACGAUGC	-2.28 ± 0.42	–
AAGAAGCAAUAUUACGACCA	-0.349 ± 0.1	-0.795 ± 0.2

Sequence	self-splicing fitness (ln) (30 °C)	self-splicing fitness (ln) (37 °C)
AACUAGCAAUAUUACGGCUU	0.0162 ± 0.065	-0.0298 ± 0.091
CUCUAGCAAUAUUACGCCAG	-2.53 ± 0.32	–
AGCUAGCAAUAUUACGUUUC	-4.92 ± 0.25	-2.56 ± 0.16
AAAGAGCAAUAUUACGAACU	-1.41 ± 0.18	-1.14 ± 0.27
GGUGAGCAAUAUUACGAUCG	-0.341 ± 0.095	0.221 ± 0.13
CCAAAGCAAUAUUACGACUC	-2.53 ± 0.27	-2.03 ± 0.43
AUGGAGCAAUAUUACGUUAA	-2.58 ± 0.22	-1.59 ± 0.23
UUUUAGCAAUAUUACGGGUC	-3.73 ± 0.4	-2.96 ± 0.38
CGAGAGCAAUAUUACGUUAC	-4.23 ± 0.28	-2.29 ± 0.24
AACUAGCAAUAUUACGCGCG	-0.639 ± 0.082	-0.378 ± 0.12
ACAAAGCAAUAUUACGCUGU	-2.48 ± 0.14	-3.01 ± 0.27
GCGAAGCAAUAUUACGCAAG	-2.51 ± 0.42	–
UGUUAGCAAUAUUACGUUGA	-1.59 ± 0.21	-0.731 ± 0.19
CGUCAGCAAUAUUACGUAGC	-2.81 ± 0.12	-2.29 ± 0.14
GGAUAGCAAUAUUACGGUAU	-1.48 ± 0.084	-0.924 ± 0.09
GUGCAGCAAUAUUACGGCAC	-0.83 ± 0.2	-1.46 ± 0.24
AGUAAGCAAUAUUACGCGGU	-2.66 ± 0.24	-2.46 ± 0.29
AUUAAGCAAUAUUACGCGGA	-2.44 ± 0.2	-0.491 ± 0.15
UGGUAGCAAUAUUACGGGAA	-2.02 ± 0.22	-1.6 ± 0.19
GAAGAGCAAUAUUACGGCAU	-1.96 ± 0.12	-1.99 ± 0.17
AUCCAGCAAUAUUACGCUCA	0.0746 ± 0.13	0.8 ± 0.17
GUGCAGCAAUAUUACGUUUG	-1.76 ± 0.17	-2.63 ± 0.27
UUAGAGCAAUAUUACGCCUA	-0.268 ± 0.13	-0.0554 ± 0.19
UGGUAGCAAUAUUACGUAGG	-1.25 ± 0.14	-1.35 ± 0.25
